How the values were obtained:
[1] = molecular target: T1, gI-2t 262 (HSV-2, UniProt P06764 21-262); experiment: SEC-MALS of the gE-2t 417 / gI-2t 262 heterodimer complex
T1 construct: Partner of gE-2t 417 in the SEC-MALS analysis of complex formation; also called soluble gI-2; not shown: glycine linker and thrombin-cleavable 6-Histidine tag

[2] = molecular target: T2, human IgG Fc (human); experiment: SPR; IgG amine coupled to CM5 chip, construct flowed at 750 ug/ml; end-point RU of association phase
T2 construct: domain: Fc; Immobilised partner in SPR; also called human IgG Fc domain

[3] = molecular target: T3, human whole molecule IgG (human); experiment: as above
T3 construct: Immobilised partner in SPR; also called Human IgG; Human IgG Whole Molecule

[4] = molecular target: T4, rabbit whole molecule IgG (rabbit); experiment: as above
T4 construct: Immobilised partner in SPR; also called Rabbit IgG; Rabbit IgG Whole Molecule

[5] = molecular target: T5, mouse whole molecule IgG (mouse); experiment: as above
T5 construct: Immobilised partner in SPR; also called Mouse IgG

[6] = molecular target: T6, guinea pig whole molecule IgG (guinea pig); experiment: as above
T6 construct: Immobilised partner in SPR; also called Guinea Pig IgG

B1: gE-2t 417 (other)
chain: AAPRTSWKRVTSGEDVVLLPAPAGPEERTRAHKLLWAAEPLDACGPLRPSWVALWPPRRVLETVVDAACMRAPEPLAIAYSPPFPAGDEGLYSELAWRDRVAVVNESLVIYGALETDSGLYTLSVVGLSDEARQVASVVLVVEPAPVPTPTPDDYDEEDDAGVSERTPVSVPPPTPPRRPPVAPPTHPRVIPEVSHVRGVTVHMETPEAILFAPGETFGTNVSIHAIAHDDGPYAMDVVWMRFDVPSSCAEMRIYEACLYHPQLPECLSPADAPCAVSSWAYRLAVRSYAGCSRTTPPPRCFAEARMEPVPGLAWLASTVNLEFQHASPQHAGLYLCVVYVDDHIHAWGHMTISTAAQYRNAVVEQHLPQRQPEPVEPTRPHVRAPPPAPSARGPLR
notes: Monomer, mammalian expression; also called gE-2t 417 WT; gE-2t 417 wild type; not shown: glycine linker and thrombin-cleavable 6-Histidine tag
With B1 the binding result [1] was “binds”, the “RU Post Association” value [2] was 5 RU and the “RU Post Association” value [3] was 4 RU. For the same binder, the “RU Post Association” value [4] was 11 RU, the “RU Post Association” value [5] was 10 RU and the “RU Post Association” value [6] was 5 RU.
